Reference: PMC3162016

Key:
[1] = target: H-Ara h 2/6 (native Ara h 2/6 heated for 15 min to 110°C alone); assay: SEC; Superdex-75 column on an Äkta Basic FPLC, calibrated with gel filtration molecular weight standards; Ara h 2/6 before and after heating for 15 min at 110°C in the presence or absence of glucose
[2] = target: G-Ara h 2/6 (native Ara h 2/6 heated for 15 min to 110°C in the presence of 100 mM glucose); assay: as above

| percent of the protein remaining monomeric [1] [%] | percent of the protein remaining monomeric [2] [%] | Substance |
| --- | --- | --- |
| 20 | – | H-Ara h 2/6 (native Ara h 2/6 heated for 15 min to 110°C alone) |
| – | 20 | G-Ara h 2/6 (native Ara h 2/6 heated for 15 min to 110°C in the presence of 100 mM glucose) |
